The labels stand for the following.
B1: ZNF24 (parent)
chain: THTKEQILELVVLEQFVAILPKEL
B2: MNAT1 (parent)
chain: LAPIHKLEEALYEYQPLQIETYGP
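Also: lentivirally expressed fusions sorted by FACS into six bins by GFP to DsRed ratio, PSI derived from sequencing read proportions per bin multiplied by bin number.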

Variants of B1 are the subject of the first data set. The data set can be described thus: protein stability index of a GFP-peptide fusion (GPS, HEK-293T) (PSI 1-6); higher = more stable. The note with it: c terminus: a fixed tail appended.
THTKEQIPELVVLEQFVAILPKEL [L8P]: the protein stability index was determined as 2.16.

As for THTKEQIDELVVLEQFVAILPKEL [L8D], the protein stability index was found to be 2.52.

Turning to THTKEHILELVVLEQFVAILPKEL [Q6H], the protein stability index was found to be 1.8.

Regarding THTKEIILELVVLEQFVAILPKEL [Q6I], the protein stability index came out at 3.01.

In the case of THTKENILELVVLEQFVAILPKEL [Q6N], the protein stability index came to 2.52.

On to THTKESILELVVLEQFVAILPKEL [Q6S], for which the protein stability index worked out at 2.96.

In the case of THTKELILELVVLEQFVAILPKEL [Q6L], the protein stability index was 3.47.

As for THTKEKILELVVLEQFVAILPKEL [Q6K], the protein stability index came to 3.65.

As to THTKEWILELVVLEQFVAILPKEL [Q6W], the protein stability index came out at 2.41.

Turning to THTKEAILELVVLEQFVAILPKEL [Q6A], the protein stability index is 2.33.

As for THTKEGILELVVLEQFVAILPKEL [Q6G], the protein stability index is 3.09.

With THTKEMILELVVLEQFVAILPKEL [Q6M], the protein stability index turned out to be 3.56.

Take THTKEDILELVVLEQFVAILPKEL [Q6D]: the protein stability index is 1.55.

Turning to THTKEPILELVVLEQFVAILPKEL [Q6P], the protein stability index was 4.

Regarding THTKEVILELVVLEQFVAILPKEL [Q6V], the protein stability index was 3.24.

For THTKEYILELVVLEQFVAILPKEL [Q6Y], the protein stability index was 4.9.

For THTKETILELVVLEQFVAILPKEL [Q6T], the protein stability index came out at 3.03.

As for THTKEEILELVVLEQFVAILPKEL [Q6E], the protein stability index stood at 2.46.

With THTKECILELVVLEQFVAILPKEL [Q6C], the protein stability index stood at 2.11.

For THTKEFILELVVLEQFVAILPKEL [Q6F], the protein stability index amounted to 3.53.

For the variant THTKERILELVVLEQFVAILPKEL [Q6R], the protein stability index is 2.56.

For THTKKQILELVVLEQFVAILPKEL [E5K], the protein stability index was found to be 2.23.

On to THTKLQILELVVLEQFVAILPKEL [E5L], for which the protein stability index was 2.78.

As to THTKTQILELVVLEQFVAILPKEL [E5T], the protein stability index worked out at 3.59.

Regarding THTKYQILELVVLEQFVAILPKEL [E5Y], the protein stability index is 2.01.

THTKSQILELVVLEQFVAILPKEL [E5S]: the protein stability index is 1.57.

For THTKGQILELVVLEQFVAILPKEL [E5G], the protein stability index turned out to be 2.7.

As for THTKAQILELVVLEQFVAILPKEL [E5A], the protein stability index worked out at 2.

As for THTKQQILELVVLEQFVAILPKEL [E5Q], the protein stability index amounted to 2.97.

As to THTKRQILELVVLEQFVAILPKEL [E5R], the protein stability index was 3.65.

THTKWQILELVVLEQFVAILPKEL [E5W]: the protein stability index worked out at 2.85.

With THTKFQILELVVLEQFVAILPKEL [E5F], the protein stability index came to 2.12.

In the case of THTKCQILELVVLEQFVAILPKEL [E5C], the protein stability index came to 2.31.

Take THTKMQILELVVLEQFVAILPKEL [E5M]: the protein stability index amounted to 3.25.

Regarding THTKNQILELVVLEQFVAILPKEL [E5N], the protein stability index worked out at 3.01.

With THTKHQILELVVLEQFVAILPKEL [E5H], the protein stability index is 2.42.

With THTKVQILELVVLEQFVAILPKEL [E5V], the protein stability index came out at 3.53.

With THTKIQILELVVLEQFVAILPKEL [E5I], the protein stability index is 3.67.

Turning to THTWEQILELVVLEQFVAILPKEL [K4W], the protein stability index was found to be 2.88.

Turning to THTHEQILELVVLEQFVAILPKEL [K4H], the protein stability index was 2.

In the case of THTFEQILELVVLEQFVAILPKEL [K4F], the protein stability index came out at 4.57.

Turning to THTEEQILELVVLEQFVAILPKEL [K4E], the protein stability index was determined as 1.58.

Consider THTGEQILELVVLEQFVAILPKEL [K4G], for which the protein stability index stood at 3.12.

Take THTREQILELVVLEQFVAILPKEL [K4R]: the protein stability index turned out to be 1.59.

Turning to THTCEQILELVVLEQFVAILPKEL [K4C], the protein stability index was 3.41.

With THTIEQILELVVLEQFVAILPKEL [K4I], the protein stability index stood at 3.38.

With THTYEQILELVVLEQFVAILPKEL [K4Y], the protein stability index was 2.51.

For THTTEQILELVVLEQFVAILPKEL [K4T], the protein stability index was 1.83.

In the case of THTDEQILELVVLEQFVAILPKEL [K4D], the protein stability index came to 2.45.

As for THTAEQILELVVLEQFVAILPKEL [K4A], the protein stability index turned out to be 2.93.

Take THTPEQILELVVLEQFVAILPKEL [K4P]: the protein stability index was determined as 2.23.

Turning to THTSEQILELVVLEQFVAILPKEL [K4S], the protein stability index stood at 2.19.

Regarding THTNEQILELVVLEQFVAILPKEL [K4N], the protein stability index came out at 2.23.

Turning to THTLEQILELVVLEQFVAILPKEL [K4L], the protein stability index stood at 4.05.

For THTMEQILELVVLEQFVAILPKEL [K4M], the protein stability index was 2.91.

On to THTQEQILELVVLEQFVAILPKEL [K4Q], for which the protein stability index is 2.59.

In a further data set the parent is B2. The description is as above. The note with it: c terminus: a fixed tail appended.
LAPIHKLEEALYEYQPLQIETYWP [G23W]: the protein stability index came out at 1.14.

Take LAPIHKLEEALYEYQPLQIETYEP [G23E]: the protein stability index is 1.86.

As to LAPIHKLEEALYEYQPLQIETYMP [G23M], the protein stability index came out at 2.17.

Regarding LAPIHKLEEALYEYQPLQIETYFP [G23F], the protein stability index is 1.92.

For LAPIHKLEEALYEYQPLQIETYLP [G23L], the protein stability index worked out at 2.56.

Consider LAPIHKLEEALYEYQPLQIETYQP [G23Q], for which the protein stability index came to 2.02.

For the variant LAPIHKLEEALYEYQPLQIETYVP [G23V], the protein stability index is 2.79.

Consider LAPIHKLEEALYEYQPLQIETYRP [G23R], for which the protein stability index was 1.15.

Regarding LAPIHKLEEALYEYQPLQIETYTP [G23T], the protein stability index is 1.3.

With LAPIHKLEEALYEYQPLQIETYDP [G23D], the protein stability index is 1.3.

On to LAPIHKLEEALYEYQPLQIETYYP [G23Y], for which the protein stability index turned out to be 1.87.

Turning to LAPIHKLEEALYEYQPLQIETYHP [G23H], the protein stability index is 2.67.

Take LAPIHKLEEALYEYQPLQIETYIP [G23I]: the protein stability index amounted to 2.07.

Turning to LAPIHKLEEALYEYQPLQIETYNP [G23N], the protein stability index worked out at 1.85.

In the case of LAPIHKLEEALYEYQPLQIETYKP [G23K], the protein stability index is 2.86.

With LAPIHKLEEALYEYQPLQIETYAP [G23A], the protein stability index is 2.16.

For the variant LAPIHKLEEALYEYQPLQIETYCP [G23C], the protein stability index was found to be 1.44.

As for LAPIHKLEEALYEYQPLQIETYPP [G23P], the protein stability index amounted to 1.67.

LAPIHKLEEALYEYQPLQIETYSP [G23S]: the protein stability index is 2.1.

Consider LAPIHKLEEALYEYQPLQIETYGD [P24D], for which the protein stability index turned out to be 1.95.

For the variant LAPIHKLEEALYEYQPLQIETYGH [P24H], the protein stability index is 1.58.

For LAPIHKLEEALYEYQPLQIETYGG [P24G], the protein stability index is 1.82.

Take LAPIHKLEEALYEYQPLQIETYGN [P24N]: the protein stability index turned out to be 2.52.

With LAPIHKLEEALYEYQPLQIETYGT [P24T], the protein stability index is 1.87.

Turning to LAPIHKLEEALYEYQPLQIETYGI [P24I], the protein stability index came to 2.04.

In the case of LAPIHKLEEALYEYQPLQIETYGK [P24K], the protein stability index was determined as 2.29.

With LAPIHKLEEALYEYQPLQIETYGY [P24Y], the protein stability index worked out at 2.37.

Regarding LAPIHKLEEALYEYQPLQIETYGS [P24S], the protein stability index was determined as 2.35.

In the case of LAPIHKLEEALYEYQPLQIETYGW [P24W], the protein stability index came out at 1.99.

For LAPIHKLEEALYEYQPLQIETYGQ [P24Q], the protein stability index stood at 1.75.

On to LAPIHKLEEALYEYQPLQIETYGC [P24C], for which the protein stability index came out at 2.67.

Take LAPIHKLEEALYEYQPLQIETYGA [P24A]: the protein stability index was found to be 2.14.

Consider LAPIHKLEEALYEYQPLQIETYGL [P24L], for which the protein stability index worked out at 3.08.

LAPIHKLEEALYEYQPLQIETYGM [P24M]: the protein stability index came to 1.25.

Regarding LAPIHKLEEALYEYQPLQIETSGP [Y22S], the protein stability index turned out to be 2.4.

With LAPIHKLEEALYEYQPLQIETTGP [Y22T], the protein stability index was determined as 2.64.

For LAPIHKLEEALYEYQPLQIETVGP [Y22V], the protein stability index stood at 1.76.

Consider LAPIHKLEEALYEYQPLQIETWGP [Y22W], for which the protein stability index came to 2.1.

The record behind these values is the supplement of paper PMC10567573.
